Source: paper PMC11195947

System: His6-CusR (Pseudomonas paraeruginosa IHMA87)
Test: EMSA
Conditions: apparent equilibrium constant (Keq); unphosphorylated CusR; 20 mM HEPES pH 7.9, 80 mM KCl, 20 mM MgCl2, 0.8 mM EDTA, 7.5% glycerol, 0.1 mM DTT, 25 C; 0.5 nM probe; native 5% TBE gel at 4 C

Substance: PcusR probe (pcoA2-cusR intergenic 60-mer)
- Kd: 25 nM
